Measured values published in paper PMC10160006 (Nature chemical biology, 2023).

T1: EXT1-pGEn1 (human EXT1 residues 28-746 with N-terminal His8 and StrepII tag) (human, UniProt Q16394 28-746)
T1 sequence (looked up): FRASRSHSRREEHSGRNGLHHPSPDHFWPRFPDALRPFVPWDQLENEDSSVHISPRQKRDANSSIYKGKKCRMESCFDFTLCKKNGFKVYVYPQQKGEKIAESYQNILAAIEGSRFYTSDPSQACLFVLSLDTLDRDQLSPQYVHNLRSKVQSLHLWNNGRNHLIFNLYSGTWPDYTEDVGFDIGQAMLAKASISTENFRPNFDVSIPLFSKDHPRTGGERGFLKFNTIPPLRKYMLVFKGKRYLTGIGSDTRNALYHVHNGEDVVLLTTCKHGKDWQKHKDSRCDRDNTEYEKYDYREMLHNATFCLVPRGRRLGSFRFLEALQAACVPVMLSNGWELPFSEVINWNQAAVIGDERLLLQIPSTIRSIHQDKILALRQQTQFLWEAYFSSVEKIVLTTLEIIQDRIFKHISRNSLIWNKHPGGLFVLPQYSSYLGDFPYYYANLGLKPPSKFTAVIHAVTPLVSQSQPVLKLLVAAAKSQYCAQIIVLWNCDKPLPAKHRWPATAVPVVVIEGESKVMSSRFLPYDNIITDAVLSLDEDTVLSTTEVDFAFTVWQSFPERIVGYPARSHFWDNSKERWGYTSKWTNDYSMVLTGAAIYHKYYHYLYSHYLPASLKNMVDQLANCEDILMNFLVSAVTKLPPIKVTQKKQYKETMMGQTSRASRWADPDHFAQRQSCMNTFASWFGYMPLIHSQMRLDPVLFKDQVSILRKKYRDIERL

B1: human EXT1 (residues 28-746), fusion tags removed by TEV protease (enzyme, UniProt Q16394 28-746, looked up)
chain: T1 sequence (looked up)
modifications: NAG at Asn330
B2: human EXT2 (residues 46-718), fusion tags removed by TEV protease (enzyme, UniProt Q93063 46-718, looked up)
chain: WPHSIESSNDWNVEKRSIRDVPVVRLPADSPIPERGDLSCRMHTCFDVYRCGFNPKNKIKVYIYALKKYVDDFGVSVSNTISREYNELLMAISDSDYYTDDINRACLFVPSIDVLNQNTLRIKETAQAMAQLSRWDRGTNHLLFNMLPGGPPDYNTALDVPRDRALLAGGGFSTWTYRQGYDVSIPVYSPLSAEVDLPEKGPGPRQYFLLSSQVGLHPEYREDLEALQVKHGESVLVLDKCTNLSEGVLSVRKRCHKHQVFDYPQVLQEATFCVVLRGARLGQAVLSDVLQAGCVPVVIADSYILPFSEVLDWKRASVVVPEEKMSDVYSILQSIPQRQIEEMQRQARWFWEAYFQSIKAIALATLQIINDRIYPYAAISYEEWNDPPAVKWGSVSNPLFLPLIPPQSQGFTAIVLTYDRVESLFRVITEVSKVPSLSKLLVVWNNQNKNPPEDSLWPKIRVPLKVVRTAENKLSNRFFPYDEIETEAVLAIDDDIIMLTSDELQFGYEVWREFPDRLVGYPGRLHLWDHEMNKWKYESEWTNEVSMVLTGAAFYHKYFNYLYTYKMPGDIKNWVDAHMNCEDIAMNFLVANVTGKAVIKVTPRKKFKCPECTAIDGLSLDQTHMVERSECINKFASVFGTMPLKVVEHRADPVLYKDDFPEKLKSFPNIGSL
modifications: N-glycan on Asn637
B3: EXT2-pGEn2 (human EXT2 residues 46-718 with N-terminal His8, AviTag and GFP) (enzyme, UniProt Q93063 46-718, looked up)
chain: B2 chain

What was measured:
[1] = target: B2; assay: cryo-EM structure
[2] = target: B1; assay: cryo-EM structure
[3] = target: T1, EXT1-pGEn1 (human EXT1 residues 28-746 …); assay: SEC-MALS

## B1
[1]
  stoichiometry N: 1 EXT1:EXT2

## B2
[2]
  binding result: binds

## B3
[3]
  binding result: binds
